Experimental data as given in the DeepSol protein solubility set.

Assay: soluble on expression in E. coli; label from the status in PepcDB or PDB records

| Sequence | soluble on expression in E. coli |
| --- | --- |
| MAHHHHHHMTAALNRKFDLLQKSGTCPSYLLDVLTLLVAHANETELFKQELRSAPFENAAPPLRADRGMVAAAAPQPEMGTQTVTQPEAPGTEKEVLLAAERTLRAYASDLRKINDIAMATSSKKLREMKMSNFTEMAAFRDRVVSDAVDRAREELELLRMGWLESMNTEVERAKMEVHKVGLSSQKALHKMLEGYRDYVSDGFRLLKTEPLEVMHRAMAECAFCVERLKIMEQQVVPRIEIDALCGRLKSVERVIAQMLKKRHSSGVVDDEISVVPTAGPSETGASTAAAGDDRPLGLRLRDGGNDVEGLIVTEVAPNSLASKARISPGQIISHVGDALVTRRDDFTTAMQKTGSAAKLTIYDPETAVVRILTLKP | soluble |
| GPGSMKVFHFHGTYRALGVRPKDFSLRAETVDGWRTPVLTSDWERHCDVEGIVTPALSSAGNAASALEPKGPVQVVVATFSLPPGSYATSVLREFCIRTTENGQGNDLETEDEYSSCADTMSHDGCQERRNGRRHHRPASRCIVTRSMRICSLCRSLSPLSLLLLTYVM | soluble |
| MALNGTPALNVNWHGNYDVIVLGFGGAGASAARFAADNGAHVLVVDAAPFGREGGNTRYSAQHVVTGESLDKLTAYYQALGAPFSTPTKTLNAYLSGMSKIPAYFEKYLGIKAVSWKHDIKPGDAVAIKKTMAEYPELAGSDTIDFALVHKRDKDAALWKLLRQKVLERADNIDVWLDSRAQHLIQDPNTKVIQGVQIKRGERLLNIHANNGVVLAMGGFENNPELKQTYLHSDNLTPLGTLYNRGDGIKMAQEVDAKMWHMTNYESHGILPGLEHHHHHH | not soluble |
| DTVIAMDAYTPHDVTTQAQQLIDATPTAPALAPMTWPTPRVAARVRTQRDQRGRAPKPPRARGIDTIQHGRDDIDLRAISQLACTSQTQAIARIIATLEKRVDDHTPMITLVNDVLAEIETHGWAALSGQRAGSHAERHPGRVAMPRPQEVMAALNRYRGLSLVGSLDA | not soluble |
| MGIKGLSQVIADNAPSAIKVNEMKAFFGRTVAIDASMCLYQFLIAVRQDGSQLQSEDGETTSHLMGMLNRTVRMFENGVKPVYVFDGKPPDMKGGELEKRSERRAEAEKALTEAKEKGDVKEAEKFERRLVKVTKQQNDEAKRLLGLMGIPVVEAPCEAEAQCAHLVKAGKVFGTVTEDMDALTFGSTVLLRHFLAPVAKKIPIKEFNLSLALEEMKLSVEEFIDLCILLGCDYCGTIRGVGPKKAVELIRQHKNIETILENIDQNKYPPPEDWPYKRARELFLNPEVTKPEEVELTWKEADVEGVIQFLCGEKNFNEERIRNALAKLKTSRKSGTQGRIDSFFGNSTKVTCVTAATKRKAEEAEKAKKGAKKGGPPKKRAK | not soluble |
| MNATIQTIPELLIQTRGNQTEVARMLSCARGTVLKYNRDSKGERHVIVNGVLMVKQGKRGRP | not soluble |
| VGKVFVDAIVKFTKEGDKIPLEIVWDDGRRFEVDRVLDVTKAASLKAGGRGTRYKCRIRGKEIYLFFDDEKWFVETGNK | not soluble |
| MGSSHHHHHHSSGLVPRGSHMDTKIGLEVHFQLNTGKLFCRCPVEQSSGELMRFSRKLHISASELGNIDAAASYESMRSRSFQYVVTDNSCLVEMDEEPPKTPDERAIATAISVSKALNCDIVDHITYMRKIVIDGSNTTGFQRTAIVGINGHIETSKGPVRISTVCLEEDAARKIEEIGNTVVYSLDRLGIPLIEISTEPDIVDEDHAVEVARSIGYIVISTGNARHAVDAVRQDVNFSMGYGRVEIKGVSKLTQIRDVIRYEKERQENLRAAVDLIKSRGGLDRVSFNLKDVSDLFAGTKSKIIRSGIESGGVYAGILKNMAGTLKNGKLRMGKEIADLVRSYGIKGVMHSDELPGYGLTQDEVEALYRYLGKGDNDAVLLIAINQSRVKMIENSIFDRIQKIISMDLSETRGPAGEETVFLRPMPGKDRMYPETDIPVIKVDSKLMEMSSSIKPRTYAEVVQDLVDRYGISKQNAEYIASEMVVDAFRNIAEFVEAREAARILTQIVPDLERRTKKIIDHDRIIELCRRSKDLHFDRYQLEMALEILYERDDVASVLGDSRLKELSREEIKSIIREILSSGRNATQNSIIALIKEKTERVFDPRVAMECFNEVKNKNNVF | soluble |
| MGSDKIHHHHHHVEGLIFQSSEFGTDEIYANMEEYIMQITRDNYSQYAQMVQQMFGKKASSNDPLAQCDYGNFSLRFKPVDINFTKPNWDTIMTKRDKPAMSEEEFDEAIKELARKEFATGKRDDDAYRKLCMQHGETVSPDRKAIYESSMKKTGGKMNAACMFWDSKGNKTLSYNPESRNWKAISTDEEFARARVFTSIYNDELARLKEEYGEKAKGNVSYSKIKVDISAERSKEKNNNEGNTIDLQI | not soluble |
| MTNNDKNKKIVPEVKGTLRSHMIELPEVIRNATGIRVFGKRLKSFVFSTDVAVIRNTNADAVIAVYPFTPQPVITAAIVLAADVPVFCGVGGGLTMGKRVVNLALDAEFKGAMGVVVNSPTPNDIIREVRETIDIPIIVTVVSEYEDVQARIDSGATILNVSGAKRTSHIVRSIREKFPSIPIIATGGNNEASIIETIEAGANAITYTPPTTGKIFGDTMNSYRKKFE | not soluble |
| MMTQVTESAVRSALSRVEDPEIGKPITELGMVKSVSIDGSDVQVEVYLTIAACPMKTTIVTNTEAALKDIDGVGQVHVTTDVMSDEQRRALRVSLRGETSEPVIPFAQPGSTTRVYAVASGKGGVGKSSMTVNLAAALAKRGLSVGILDADIYGHSVPGMLGSDQRPHQVDDMIMPPQAHGVKMISIAHFTEGNAPVVWRGPMLHRAIQQFLTDVFWGDLDILLLDLPPGTGDIAITVAQLIPNAELLIVTTPQAAAAEVAERAGTISVQTNQKVAGVIENMSAMVLPDGTTMDVFGTGGGQKIADRLTAVTGEEVKVIGSVPLDPNLRIGGDVGNPIAISEPHSPTAAAINEIAEHLAHRKVSLVGKTLGLGVKLEHHHHHH | soluble |
| GSGPTYCWNEANNPGGPNRCSNNKQCDGARTCSSSGFCQGTSRKPDPGPKGPTYCWDEAKNPGGPNRCSNSKQCDGARTCSSSGFCQGTAGHAAA | soluble |
| MKEVYRYAYHYAGRPVGEGRLEVERRRGGVRASLQAEFLPPLPPGRQRWQTELDAEGFSLRFQERVEGKEVRVFAVERLEEEGVVLVSQGKESLAYPYLAPYHDPLSLFLALPGLALEPGEVVRFPMPGGRVYVERLPDVEVEGRARRQYRLRPGLSLVQVEEGRLVRVAQQVGRHVFEAVLLEAEGP | soluble |
| MGHHHHHHGGHMSLAAQELLRDAFTRLIEHVDELTDGLTDQLACYRPTPSANSIAWLLWHSARVQDIQVAHVAGVEEVWTRDGWVDRFGLDLPRHDTGYGHRPEDVAKVRAPADLLSGYYHAVHKLTLEYIAGMTADELSRVVDTSWNPPVTVSARLVSIVDDCAQHLGQAAYLRGIAEGGS | soluble |
| MNTGPYYFVKNLPLHELITPEFISTFIKKGSCYALTYNTHIDEDNTVALLPNGKLILSLDKDTYEETGLQGHPSQFSGRKIMKFIVSIDLMELSLNLDSKKYERISWSFKEKKPLKFDFLLAWHKTGSEESTMMSYFSKYQIQEHQPKVALSTLRDLQCPVLQSSELEGTPEVSCRALELFDWLGAVFSNVDLNEPNNFISTYCCPEPSTVVAKAYLCTITGFILPEKICLLLEHLCHYFDEPKLAPWVTLSVQGFADSPVSWEKNEHGFRKGGEHLYNFVIFNNQDYWLQMAVGANDHCPPLEHHHHHH | not soluble |
| MNTNNALMQRRHNAVPRGVGQIHPIFAERAENCRVWDVEGREYLDFAGGIAVLNTGHLHPGIVSAVEAQLKKLSHTCFQVLAYEPYLALCERMNQKVPGDFAKKTLLVTTGSEAVENAVKIARAATKRSGAIAFSGAYHGRTHYTLSLTGKVHPYSAGMGLMPGHVYRALYPCPLHNISDDDAIASIERIFKNDAAPEDIAAIIIEPVQGEGGFYAASPAFMQRLRALCDQHGIMLIADEVQSGAGRTGTLFAMEQMGVAADITTFAKSIAGGFPLAGVTGRADVMDAIAPGGLGGTYAGNPIACAAALAVLDIFEQENLLQKANTLGKTLRDGLMEIAETHREIGDVRGLGAMIAIELFENGDPGKPNAALTADIVTRAREKGLILLSCGPYYNILRILVPLTIEASQIRQGLEIIAQCFDEAKQA | not soluble |
| AIAEEDEFIGEKTFQRYCAEFIKHSQQIGDSWEWRPSKDCSDGYMCKIHFQIKNGSVMSHLGASTHGQTCLPMEEAFELPLDDCEVIETAAASEVIKYEYHVLYSCSYQVPVLYFRASFLDGRPLTLKDIWEGVHECYKMRLLQGPWDTITQQEHPILGQPFFVLHPCKTNEFMTPVLKNSQKINKNVNYITSWLSIVGPVVGLNLPLSYAKATSQDERNVP | soluble |
